In US20140213531A1 (POLYPHOR, published 2014):
Blank lines part the entries; values can stand above or below the binder they belong to.

Tests used:
Test in all cases: enzyme inhibition, pNA substrate
[1] = target: T1, Coagulation Factor Xa, from uman plasma (human, UniProt P00742 41-179; P00742 235-488, limits assumed)
T1 construct: purified natural enzyme, bought; also called FXa

[2] = target: T2, Urokinase from human urine (human, UniProt P00749 21-431, limits assumed)
T2 construct: purified natural enzyme, bought

[3] = target: T3, Chymase, from human skin (human, UniProt P23946 22-247)
T3 construct: purified natural enzyme, bought
T3 sequence (looked up): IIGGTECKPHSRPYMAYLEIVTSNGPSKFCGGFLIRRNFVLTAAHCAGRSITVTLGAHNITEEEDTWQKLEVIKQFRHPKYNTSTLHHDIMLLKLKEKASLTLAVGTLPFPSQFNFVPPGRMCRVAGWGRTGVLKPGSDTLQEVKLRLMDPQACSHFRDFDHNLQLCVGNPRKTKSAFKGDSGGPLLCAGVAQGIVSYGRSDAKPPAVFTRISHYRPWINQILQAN

[4] = target: T4, Chymotrypsin, from human pancreas (human, UniProt P17538 19-263)
T4 construct: purified natural enzyme, bought

[5] = target: T5, CathepsinG, from human neutrophils (human, UniProt P08311 21-244)
T5 construct: purified natural enzyme, bought
T5 sequence (looked up): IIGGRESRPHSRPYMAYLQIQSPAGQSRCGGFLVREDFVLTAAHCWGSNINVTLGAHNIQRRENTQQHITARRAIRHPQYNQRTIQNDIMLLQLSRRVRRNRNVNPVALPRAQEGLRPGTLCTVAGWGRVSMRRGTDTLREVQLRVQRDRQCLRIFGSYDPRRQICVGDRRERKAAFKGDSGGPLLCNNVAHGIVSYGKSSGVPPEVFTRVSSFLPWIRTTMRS

[6] = target: Thrombin, from Human Plasma, high activity (human, UniProt P00734 328-622)
[7] = target: T6, Tryptase, from human lung (human, UniProt Q15661 31-275, limits assumed)
T6 construct: purified natural enzyme, bought

[8] = target: T7, Trypsin, Iodination grade, from human pancreas (human, UniProt P07477 24-247)
T7 construct: purified natural enzyme, bought

T4 sequence (P17538 19-263): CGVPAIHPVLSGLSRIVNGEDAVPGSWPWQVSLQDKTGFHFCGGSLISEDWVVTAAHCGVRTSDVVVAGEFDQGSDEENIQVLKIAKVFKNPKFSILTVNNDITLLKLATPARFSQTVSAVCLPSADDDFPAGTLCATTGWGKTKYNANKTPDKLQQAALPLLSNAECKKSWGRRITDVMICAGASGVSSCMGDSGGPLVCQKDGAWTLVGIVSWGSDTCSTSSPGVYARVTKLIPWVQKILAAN
T1 sequence (P00742 41-179 limits assumed, chain 1 of 2): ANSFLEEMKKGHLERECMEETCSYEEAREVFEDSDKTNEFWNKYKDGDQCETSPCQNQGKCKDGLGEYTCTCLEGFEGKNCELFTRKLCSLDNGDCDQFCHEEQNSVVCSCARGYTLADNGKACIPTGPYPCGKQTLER
T1 sequence (P00742 235-488 limits assumed, chain 2 of 2): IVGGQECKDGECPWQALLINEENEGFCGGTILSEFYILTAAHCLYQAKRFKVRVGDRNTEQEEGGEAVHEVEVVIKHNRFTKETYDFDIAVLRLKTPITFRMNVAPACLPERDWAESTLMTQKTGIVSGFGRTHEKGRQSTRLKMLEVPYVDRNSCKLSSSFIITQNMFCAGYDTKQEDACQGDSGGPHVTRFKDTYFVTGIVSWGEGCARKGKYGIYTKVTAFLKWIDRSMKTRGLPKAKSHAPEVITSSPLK
T6 sequence (Q15661 31-275 limits assumed): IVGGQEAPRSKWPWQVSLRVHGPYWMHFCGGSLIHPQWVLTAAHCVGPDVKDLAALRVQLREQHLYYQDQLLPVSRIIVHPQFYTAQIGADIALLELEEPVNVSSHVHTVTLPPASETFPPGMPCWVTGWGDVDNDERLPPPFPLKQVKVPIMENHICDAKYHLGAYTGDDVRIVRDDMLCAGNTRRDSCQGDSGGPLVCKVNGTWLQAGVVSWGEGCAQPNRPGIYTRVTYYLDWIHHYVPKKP

- % inhibition at 100 µM [1]: 11%
- % inhibition at 100 µM [2]: 16%
- % inhibition at 100 µM [3]: 0%
- % inhibition at 100 µM [4]: 84%
- % inhibition at 100 µM [5]: 56%
- % inhibition at 100 µM [6]: 16%
B1: Example 153 (peptide)
peptide: XCTASXPPQCQ
HELM: PEPTIDE1{[O=C([C@H](CCc1ccccc1)N[*:1])[*:2]].C.T.A.S.[CCCCCCCC[C@H](N[*:1])C(=O)[*:2]].P.P.Q.C.Q.[dP].P}$PEPTIDE1,PEPTIDE1,2:R3-10:R3|PEPTIDE1,PEPTIDE1,1:R1-13:R2$$$V2.0
SMILES: CCCCCCCC[C@@H]1NC(=O)[C@H](CO)NC(=O)[C@H](C)NC(=O)[C@H]([C@@H](C)O)NC(=O)[C@@H]2CSSC[C@H](NC(=O)[C@H](CCC(N)=O)NC(=O)[C@@H]3CCCN3C(=O)[C@@H]3CCCN3C1=O)C(=O)N[C@@H](CCC(N)=O)C(=O)N1CCC[C@@H]1C(=O)N1CCC[C@H]1C(=O)N[C@@H](CCc1ccccc1)C(=O)N2

- % inhibition at 100 µM [2]: 12%
- % inhibition at 100 µM [7]: 30%
- % inhibition at 100 µM [4]: 83%
- % inhibition at 100 µM [5]: 52%
- % inhibition at 100 µM [6]: 19%
- % inhibition at 100 µM [8]: 18%
B2: Example 155 (peptide)
peptide: XCTASXPPQCF
HELM: PEPTIDE1{[O=C([C@H](CCc1ccccc1)N[*:1])[*:2]].C.T.A.S.[Cha].P.P.Q.C.F.[dP].P}$PEPTIDE1,PEPTIDE1,2:R3-10:R3|PEPTIDE1,PEPTIDE1,1:R1-13:R2$$$V2.0
SMILES: C[C@@H]1NC(=O)[C@H]([C@@H](C)O)NC(=O)[C@@H]2CSSC[C@H](NC(=O)[C@H](CCC(N)=O)NC(=O)[C@@H]3CCCN3C(=O)[C@@H]3CCCN3C(=O)[C@H](CC3CCCCC3)NC(=O)[C@H](CO)NC1=O)C(=O)N[C@@H](Cc1ccccc1)C(=O)N1CCC[C@@H]1C(=O)N1CCC[C@H]1C(=O)N[C@@H](CCc1ccccc1)C(=O)N2
notes: also called Ex. 155
